# Measured values reported in publication PMC4013287 (Arteriosclerosis, thrombosis, and vascular biology, 2013).
# Key:
# [1] = biological target: von Willebrand factor (UniProt P04275 764-2813); test: ELISA
# [2] = biological target: type 1 collagen (UniProt P02452); test: ELISA
# Chain of type 1 collagen (P02452 23-1218, chain 1 of 2): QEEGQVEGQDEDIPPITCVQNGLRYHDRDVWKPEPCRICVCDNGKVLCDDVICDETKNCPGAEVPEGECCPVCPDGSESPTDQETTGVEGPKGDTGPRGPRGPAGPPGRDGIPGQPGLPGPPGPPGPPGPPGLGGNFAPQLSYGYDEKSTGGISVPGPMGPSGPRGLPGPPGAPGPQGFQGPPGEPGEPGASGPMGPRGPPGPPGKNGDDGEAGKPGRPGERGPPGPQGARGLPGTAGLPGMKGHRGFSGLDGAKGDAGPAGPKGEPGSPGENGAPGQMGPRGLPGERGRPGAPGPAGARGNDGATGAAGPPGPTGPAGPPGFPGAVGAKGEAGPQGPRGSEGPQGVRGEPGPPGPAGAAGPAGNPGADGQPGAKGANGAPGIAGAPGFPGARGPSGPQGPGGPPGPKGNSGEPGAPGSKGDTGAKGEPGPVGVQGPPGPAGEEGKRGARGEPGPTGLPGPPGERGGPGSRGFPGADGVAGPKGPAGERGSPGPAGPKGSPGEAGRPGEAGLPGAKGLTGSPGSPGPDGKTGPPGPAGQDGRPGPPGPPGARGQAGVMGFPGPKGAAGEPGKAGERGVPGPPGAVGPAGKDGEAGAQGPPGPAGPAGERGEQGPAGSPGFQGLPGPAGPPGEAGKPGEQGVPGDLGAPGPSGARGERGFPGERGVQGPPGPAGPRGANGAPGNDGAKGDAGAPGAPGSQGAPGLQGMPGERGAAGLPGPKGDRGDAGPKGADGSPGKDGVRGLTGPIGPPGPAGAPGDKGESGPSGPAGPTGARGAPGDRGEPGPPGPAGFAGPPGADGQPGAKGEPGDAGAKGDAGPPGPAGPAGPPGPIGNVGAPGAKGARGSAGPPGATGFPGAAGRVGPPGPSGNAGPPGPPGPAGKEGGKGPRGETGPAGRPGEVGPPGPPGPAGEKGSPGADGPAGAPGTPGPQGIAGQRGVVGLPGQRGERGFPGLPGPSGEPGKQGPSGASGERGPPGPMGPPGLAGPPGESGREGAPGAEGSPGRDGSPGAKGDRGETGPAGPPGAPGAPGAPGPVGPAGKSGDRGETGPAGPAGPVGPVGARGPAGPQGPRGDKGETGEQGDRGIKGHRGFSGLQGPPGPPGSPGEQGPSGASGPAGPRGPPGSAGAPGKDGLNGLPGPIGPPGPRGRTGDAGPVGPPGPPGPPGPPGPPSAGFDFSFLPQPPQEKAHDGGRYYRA
# Chain of type 1 collagen (P08123 80-1119, chain 2 of 2, further chain): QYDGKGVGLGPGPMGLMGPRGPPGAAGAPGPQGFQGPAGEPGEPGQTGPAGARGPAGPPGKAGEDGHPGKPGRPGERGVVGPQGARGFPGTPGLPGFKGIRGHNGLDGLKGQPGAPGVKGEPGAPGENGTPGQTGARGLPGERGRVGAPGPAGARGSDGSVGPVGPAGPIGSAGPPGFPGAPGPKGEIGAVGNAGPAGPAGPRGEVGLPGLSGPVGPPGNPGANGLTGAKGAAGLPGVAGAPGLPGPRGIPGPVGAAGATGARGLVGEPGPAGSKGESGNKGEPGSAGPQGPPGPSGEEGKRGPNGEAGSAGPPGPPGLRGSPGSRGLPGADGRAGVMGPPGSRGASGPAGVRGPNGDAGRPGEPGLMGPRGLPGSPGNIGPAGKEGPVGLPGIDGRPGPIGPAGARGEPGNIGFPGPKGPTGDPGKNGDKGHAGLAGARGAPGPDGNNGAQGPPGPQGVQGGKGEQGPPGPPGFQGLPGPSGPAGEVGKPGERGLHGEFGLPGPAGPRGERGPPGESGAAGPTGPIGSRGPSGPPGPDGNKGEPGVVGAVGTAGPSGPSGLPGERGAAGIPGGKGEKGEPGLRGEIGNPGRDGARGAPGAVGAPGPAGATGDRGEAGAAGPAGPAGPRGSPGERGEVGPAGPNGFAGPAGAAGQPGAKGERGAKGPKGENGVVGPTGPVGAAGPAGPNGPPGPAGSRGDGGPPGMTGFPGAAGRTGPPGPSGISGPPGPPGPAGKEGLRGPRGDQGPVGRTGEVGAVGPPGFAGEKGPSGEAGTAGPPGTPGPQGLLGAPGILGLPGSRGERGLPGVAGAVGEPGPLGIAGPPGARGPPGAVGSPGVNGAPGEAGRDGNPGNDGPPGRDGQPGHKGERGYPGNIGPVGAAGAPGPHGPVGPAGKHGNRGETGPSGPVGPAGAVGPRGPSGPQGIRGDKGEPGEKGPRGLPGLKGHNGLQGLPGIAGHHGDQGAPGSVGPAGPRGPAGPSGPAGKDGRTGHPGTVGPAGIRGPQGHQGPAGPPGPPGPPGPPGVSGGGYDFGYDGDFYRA
binder,measurement,setting,value
"Recombinant human full-length ADAMTS13 (enzyme, UniProt Q76LX8 75-1427, looked up) AAGGILHLELLVAVGPDVFQAHQEDTERYVLTNLNIGAELLRDPSLGAQFRVHLVKMVILTEPEGAPNITANLTSSLLSVCGWSQTINPEDDTDPGHADLVLYITRFDLELPDGNRQVRGVTQLGGACSPTWSCLITEDTGFDLGVTIAHEIGHSFGLEHDGAPGSGCGPSGHVMASDGAAPRAGLAWSPCSRRQLLSLLSAGRARCVWDPPRPQPGSAGHPPDAQPGLYYSANEQCRVAFGPKAVACTFAREHLDMCQALSCHTDPLDQSSCSRLLVPLLDGTECGVEKWCSKGRCRSLVELTPIAAVHGRWSSWGPRSPCSRSCGGGVVTRRRQCNNPRPAFGGRACVGADLQAEMCNTQACEKTQLEFMSQQCARTDGQPLRSSPGGASFYHWGAAVPHSQGDALCRHMCRAIGESFIMKRGDSFLDGTRCMPSGPREDGTLSLCVSGSCRTFGCDGRMDSQQVWDRCQVCGGDNSTCSPRKGSFTAGRAREYVTFLTVTPNLTSVYIANHRPLFTHLAVRIGGRYVVAGKMSISPNTTYPSLLEDGRVEYRVALTEDRLPRLEEIRIWGPLQEDADIQVYRRYGEEYGNLTRPDITFTYFQPKPRQAWVWAAVRGPCSVSCGAGLRWVNYSCLDQARKELVETVQCQGSQQPPAWPEACVLEPCPPYWAVGDFGPCSASCGGGLRERPVRCVEAQGSLLKTLPPARCRAGAQQPAVALETCNPQPCPARWEVSEPSSCTSAGGAGLALENETCVPGADGLEAPVTEGPGSVDEKLPAPEPCVGMSCPPGWGHLDATSAGEKAPSPWGSIRTGAQAAHVWTPAAGSCSVSCGRGLMELRFLCMDSALRVPVQEELCGLASKPGSRREVCQAVPCPARWQYKLAACSVSCGRGVVRRILYCARAHGEDDGEEILLDTQCQGLPRPEPQEACSLEPCPPRWKVMSLGPCSASCGLGTARRSVACVQLDQGQDVEVDEAACAALVRPEASVPCLIADCTYRWHVGTWMECSVSCGDGIQRRRDTCLGPQAQAPVPADFCQHLPKPVTVRGCWAGPCVGQGTPSLVPHEEAAAPGRTTATPAGASLEWSQARGLLFSPAPQPRRLLPGPQENSVQSSACGRQHLEPTGTIDMRGPGQADCAVAIGRPLGEVVTLRVLESSLNCSAGDMLLLWGRLTWRKMCRKLLDMTFSSKTNTLVVRQRCGRPGGGVLLRYGSQLAPETFYRECDMQLFGPWGEIVSPSLSPATSNAGGCRLFINVAPHARIAIHALATNMGAGTEGANASYILIRDTHSLRTTAFHGQQVLYWESESSQAEMEFSEGFLKAQASLRGQYWTLQSWVPEMQDPQSWKGKEGT",Kd,[1],8.2 ± 1.6 nM
same,Kd,[2],257 nM
